Experimental data from patent US20180051033, “INHIBITORS OF LATE SV40 FACTOR (LSF) AS CANCER CHEMOTHERAPEUTICS” (TRUSTEES OF BOSTON UNIVERSITY, published 2018).

Biological target: T1, LSF (TFCP2) (Homo sapiens, UniProt Q12800 SEQ:1-502)
T1 sequence: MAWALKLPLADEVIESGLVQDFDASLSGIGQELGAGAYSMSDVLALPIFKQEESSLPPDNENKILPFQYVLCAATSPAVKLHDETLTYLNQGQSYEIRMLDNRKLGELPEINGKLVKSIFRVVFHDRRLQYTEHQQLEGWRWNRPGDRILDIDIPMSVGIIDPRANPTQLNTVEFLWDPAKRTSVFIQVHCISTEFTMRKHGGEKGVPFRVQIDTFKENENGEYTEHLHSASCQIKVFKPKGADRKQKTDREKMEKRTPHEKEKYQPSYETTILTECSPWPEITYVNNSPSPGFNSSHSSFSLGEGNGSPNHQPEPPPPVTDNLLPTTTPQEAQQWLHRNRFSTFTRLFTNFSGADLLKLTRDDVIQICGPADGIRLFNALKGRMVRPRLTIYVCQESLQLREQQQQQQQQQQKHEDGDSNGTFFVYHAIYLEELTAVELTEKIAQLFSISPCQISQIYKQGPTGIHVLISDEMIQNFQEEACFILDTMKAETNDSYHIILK
Assay: EMSA; 40 mM KCl, 15 mM HEPES pH 7.9, 1 mM EDTA, 0.5 mM DTT, 5% glycerol, poly d(I-C), 30 C; FQI1 enhances binding at low and inhibits at higher concentration
Settings: chain copies: 4 stated (tetrameric on DNA); label: 32P (radiolabelled)
Method: LSF was translated in vitro as previously described¹⁶ for use in EMSAs. Protein was preincubated with inhibitor or DMSO and then incubated with 0.5 μg poly d(I-C) for 15 min at 4° C. in 40 mM KCl, 15 mM HEPES pH 7.9, 1 mM EDTA, 0.5 mM DTT, 5% glycerol. Finally, radiolabelled double-stranded DNA ([…]—SEQ ID NO: 5- and its complement) were added for a 30-min incubation at 30° C. Results were visualized using a PhosphorImager and quantified using ImageQuant software.

B1: LSF EMSA site (dsDNA)
DNA 1: TGGCTGGTTATGGCTGGTCAGACTAG
DNA 2: CTAGTCTGACCAGCCATAACCAGCCA
binding result: binds
